Measured values published in article PMC9638026, “DNA double-strand break-derived RNA drives TIRR/53BP1 complex dissociation”.

Experiments:
[1] = biological target: TIRR (6-211)-His (UniProt Q9BRJ7 6-211); assay: SPR; SPR: 20 mM HEPES pH 6, 300 mM NaCl, 0.05% P20, 25 C; EMSA: 50 mM HEPES, 50 mM NaCl, 5% glycerol, 20 mM MgCl2, 0.01% Tween 20, 37 C 15 min, 10 nM probe; details: protein: recombinant, tags: His
[2] = biological target: 53BP1-Tudor (Homo sapiens, UniProt Q12888 1484-1603); assay: EMSA; 20 mM Mg2+; SPR: 20 mM HEPES pH 6, 300 mM NaCl, 0.05% P20, 25 C; EMSA: 50 mM HEPES, 50 mM NaCl, 5% glycerol, 20 mM MgCl2, 0.01% Tween 20, 37 C 15 min, 10 nM probe; details: protein: commercial; label: 32P 5' in EMSA; hairpin
Sequence of 53BP1-Tudor (Q12888 1484-1603): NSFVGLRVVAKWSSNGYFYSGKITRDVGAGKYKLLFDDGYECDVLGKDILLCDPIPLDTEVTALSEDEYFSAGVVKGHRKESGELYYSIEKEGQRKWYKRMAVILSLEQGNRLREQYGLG

Sequence of TIRR (6-211)-His (Q9BRJ7 6-211): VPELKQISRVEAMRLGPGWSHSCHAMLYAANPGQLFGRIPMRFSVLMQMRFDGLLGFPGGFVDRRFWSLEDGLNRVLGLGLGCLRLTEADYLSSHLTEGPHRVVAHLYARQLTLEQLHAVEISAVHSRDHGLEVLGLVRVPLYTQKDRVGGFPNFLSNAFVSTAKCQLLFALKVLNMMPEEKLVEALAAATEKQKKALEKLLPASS

For GGACAAGAUGCCUUAUGUGGACUUCACCACAUAAGGCAUCUUGUCC (structured_RNA) [RNA hairpin], the Kd ([1]; hairpin) was ~100 µM.

B1: dsRNA (dsRNA)
RNA 1: GGACAAGAUGCCUUAUGUGG
RNA 2: CCACAUAAGGCAUCUUGUCC
B1 gave a Kd ([1]; blunt) of ~200 µM.

In the case of CGCUCCCAAAAAAAAAAACCGAGCG (structured_RNA) [RNA beacon], the Kd ([1]; label: 32P 5' in EMSA, hairpin) is reported as ~100 µM and the binding result [2] is reported as “no binding”.
